Experimental data: article PMC3087007 (The Journal of Cell Biology, 2011)

Biological target: T1, GST-occludin 383–522 S408A (human, UniProt Q16625 383-522, S408A)
T1 sequence: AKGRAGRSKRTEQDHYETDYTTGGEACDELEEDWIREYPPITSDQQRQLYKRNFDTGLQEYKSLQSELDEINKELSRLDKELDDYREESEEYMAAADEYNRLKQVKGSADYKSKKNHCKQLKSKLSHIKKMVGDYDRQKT
Assay: pull-down

B1: VSV G epitope-tagged human ZO-1 U5-GuK domain construct (residues 591–754) (domain or fragment)
chain: PKTAGGDRADFWRFRGLRSSKRNLRKSREDLSAQPVQTKFPAYERVVLREAGFLRPVTIFGPIADVAREKLAREEPDIYQIAKSEPRDAGTDQRSSGIIRLHTIKQIIDQDKHALLDVTPNAVDRLNYAQWYPIVVFLNPDSKQGVKTMRMRLCPESRKSARKL
fold binding relative to the S408D mutant: 3.2 fold
